Measurements taken from PMC4250914 (Scientific Reports, 2014).

Target: T1, His-VPS41 (human, UniProt P49754 1-854)
T1 sequence: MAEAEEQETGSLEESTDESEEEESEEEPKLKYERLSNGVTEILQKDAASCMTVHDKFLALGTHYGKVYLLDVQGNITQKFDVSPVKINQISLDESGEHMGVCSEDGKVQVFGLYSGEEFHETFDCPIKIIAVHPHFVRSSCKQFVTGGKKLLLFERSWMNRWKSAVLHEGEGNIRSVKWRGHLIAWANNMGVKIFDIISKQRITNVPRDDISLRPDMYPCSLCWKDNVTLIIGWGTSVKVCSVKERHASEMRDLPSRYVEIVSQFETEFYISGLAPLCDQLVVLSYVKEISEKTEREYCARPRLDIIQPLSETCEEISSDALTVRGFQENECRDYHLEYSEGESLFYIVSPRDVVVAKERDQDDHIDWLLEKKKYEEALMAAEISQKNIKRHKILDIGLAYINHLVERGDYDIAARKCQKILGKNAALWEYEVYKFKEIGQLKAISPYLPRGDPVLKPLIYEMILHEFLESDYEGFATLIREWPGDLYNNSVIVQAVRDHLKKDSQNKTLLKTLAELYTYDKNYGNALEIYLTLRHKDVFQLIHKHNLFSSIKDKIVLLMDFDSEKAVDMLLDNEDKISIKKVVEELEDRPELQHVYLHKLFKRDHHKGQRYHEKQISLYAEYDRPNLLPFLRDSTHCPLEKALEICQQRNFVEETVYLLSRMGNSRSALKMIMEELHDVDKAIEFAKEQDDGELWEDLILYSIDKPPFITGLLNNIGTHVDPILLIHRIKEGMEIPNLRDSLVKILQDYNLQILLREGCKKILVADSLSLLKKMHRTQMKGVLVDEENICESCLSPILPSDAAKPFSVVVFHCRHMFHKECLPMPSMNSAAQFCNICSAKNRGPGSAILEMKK
Test: pull-down

B1: GST-RILP (natural protein)
chain: MEPRRAAPGVPGWGSREAAGSASAAELVYHLAGALGTELQDLARRFGPEAAAGLVPLVVRALELLEQAAVGPAPDSLQVSAQPAEQELRRLREENERLRRELRAGPQEERALLRQLKEVTDRQRDELRAHNRDLRQRGQETEALQEQLQRLLLVNAELRHKLAAMQTQLRAAQDRERERQQPGEAATPQAKERARGQAGRPGHQHGQEPEWATAGAGAPGNPEDPAEAAQQLGRPSEAGQCRFSREEFEQILQERNELKAKVFLLKEELAYFQRELLTDHRVPGLLLEAMKVAVRKQRKKIKAKMLGTPEEAESSEDEAGPWILLSDDKGDHPPPPESKIQSFFGLWYRGKAESSEDETSSPAPSKLGGEEEAQPQSPAPDPPCSALHEHLCLGASAAPEA
- binding result: binds
